Target: ALFA peptide and His8-tagged ZAC orthologue from Oryzias latipes (OlZAC) (Oryzias latipes)
Experiment: negative staining EM with 2D classification; purified OlZAC reconstituted into NAPol amphipol, stained with 2% uranyl acetate, Talos L120C at 120 kV, 2D classification in RELION 3.0

- stoichiometry N: 5
Substance: ALFA peptide and His8-tagged ZAC orthologue from Oryzias latipes (OlZAC) (receptor)
